Results: patent US7737158B2, “Processes for regulating blood glucose in a mammal” (Washington University, priority 2005, dated 2010)
“Also recorded” adds a separate entry of the source.

Legend:
mouse Nampt [1] = target: T1, mouse Nampt (Mus musculus, UniProt Q99KQ4); assay: HPLC detection of Nampt reaction products; type: biochemical; set-up: expressed in transfected cells; cell extracts or culture supernatant, anti-FLAG immunoprecipitates; details: 37° C.
Method: High performance liquid chromatography was used to detect Nampt reaction products. HPLC was performed with Waters 515 pumps and a 2487 detector (Waters, Mass.) with a Supelco LC-18-T column (15 cm×4.6 cm; Supelco, Pa.). The Nampt reaction was conducted at 37° C. for 15 min in 500 μl of reaction buffer (50 mM Tris-HCl [pH 7.5], 10 mM MgCl2, 50 mM nicotinamide, 0.2 mM PRPP) with 50 μg of the recombinant Nampt protein. The reaction was terminated by adding 125 μl of 1 M HClO4. Protein was then precipitated at 18,000 g, and 500 μl of the supernatant was neutralized with 40 μl of 3 M K2CO3. After centrifugation, 100 μl of sample was mixed with 400 μl of Buffer A (50 mM K2PO4/KHPO4, pH 7.0) and loaded into the HPLC system. The products from Nampt reaction were monitored by absorbance at 261 nm.

wild type males = assay: Blood glucose after intraperitoneal injection of recombinant Nampt in fed wild type mice; type: in vivo, mouse; details: 1000 pmoles intraperitoneally, fed wild type males, 0, 30, 60 min
Method: If the NAD biosynthetic activity of Nampt is responsible for the phenotypes observed in Nampt^+/− mice, the administration of NMN, a product of the Nampt enzymatic reaction, should be able to correct their problems. To test this possibility, the same Nampt^+/− mice that were used for IPGTTs were injected with NMN at a dose of 500 mg/kg body weight intraperitoneally ˜14 hrs prior to IPGTTs. As a control, PBS was injected to the mice ˜14 hrs before conducting previous IPGTTs. […] Because these findings completely contradict the conclusion by Fukuhara et al., the reproducibility of the insulin-mimetic activity of this protein was examined. Here, 1000 pmoles of the bacterially produced recombinant protein of mouse His-tagged Nampt were injected intraperitoneally to fed wild type males. Blood glucose levels were monitored with a glucometer at 0, 30, and 60 min time points after injection.

mouse Nampt [2] = target: T1, mouse Nampt; assay: Enzyme-coupled fluorometric assay of immunoprecipitated Nampt-FLAG and recombinant Nampt; type: biochemical; set-up: expressed in transfected cells; host or cells: mouse NIH3T3 fibroblasts and mouse HIB-1B preadipocytes (differentiated), stably transfected with pCXN2-Nampt-FLAG; cell extracts or culture supernatant, anti-FLAG immunoprecipitates; details: NMN synthesis, 55 min at 37° C., pH8.5; Nampt amount quantified by Western blotting
Method: For immunoprecipitation of intracellular Nampt, whole cell extracts were prepared with ice-cold immunoprecipitation (IP) buffer (phosphate buffer saline [pH 7.4], 0.5% NP-40, 1 mM EDTA,1 mM NaF, 10 μM Trichostatin A, 10 mM nicotinamide, 0.5 mM DTT, protease inhibitor cocktail (Roche)) and mixed with agarose beads conjugated with the mouse monoclonal M2 anti-FLAG antibody (F2426, Sigma) for 3-4 hours at 4° C. For immunoprecipitation of extracellular Nampt, HIB-1B culture supernatants were collected after incubating differentiated HIB-1B cells overnight with DMEM without fetal bovine serum but supplemented with 1 μg/ml insulin and 1 nM triodothyronine, filtered through a 0.22-μm PES membrane, concentrated with Amicon Ultra-15 columns (Millipore, MA), and mixed with anti-FLAG beads for 3-4 hours at 4° C. Immunoprecipitates were washed twice with the IP buffer and twice with PBS.
Immunoprecipitates on anti-FLAG beads were incubated in enzymatic reaction buffer (50 mM Tris-HCl (pH8.5), 100 mM NaCl, 0.25 mM Nicotinamide, 10 mM MgSO4, 1.5% Ethanol, 0.5 mM PRPP, 2.0 mM ATP) for 55 min at 37° C. After this reaction, mouse recombinant nicotinamide mononucleotide adenylyltransferase and yeast alcohol dehydrogenase (Sigma) were added at 10 μg/ml as the final concentration for each, and the mixture was incubated for 5 min at 37° C. Supernatants were then collected by spinning down anti-FLAG beads, and autofluorescence of NADH was measured in a Perkin Elmer LS 50B fluorometer (excitation: 340 nm; emission: 460 nm). Immunoprecipitates bound on anti-FLAG beads were extracted with Laemmli's sample buffer, boiled for 5 minutes, and analyzed by Western blotting with anti-Nampt antibodies. The amounts of Nampt used for enzymatic reactions were quantitated compared to the standards of mouse recombinant Nampt.
The immunoprecipitates from the HIB-1B culture supernatants were subjected to enzyme-coupled fluorometric assays (see Revollo et al., J. Biol. Chem., (2004)279, 50754-50763) to compare enzymatic activity of the intracellular and extracellular forms of Nampt. […] The Nampt enzymatic activity of the bacterially produced recombinant Nampt and the intracellular Nampt-FLAG® immunoprecipitated from HIB-1B and NIH3T3 cellular extracts were also measured and their kcat values calculated (see FIG. 16E). […] It is believed that a post-translational modification may be responsible for the altered enzymatic activity of extracellular Nampt produced by brown adipocytes. […] Despite the extensive mass spectrometric analysis of extracellular Nampt, the precise nature of the modification is currently unknown. Taken together, these findings provide strong evidence that Nampt functions as an NAD biosynthetic enzyme both intra- and extracellularly.

mouse Nampt [3] = target: T1, mouse Nampt; assay: Enzyme-coupled fluorometric assay, kinetic characterization of recombinant Nampt; type: biochemical; set-up: expressed in transfected cells; cell extracts or culture supernatant, anti-FLAG immunoprecipitates
Method: Enzymatic activities of recombinant Nampt and Nmnat proteins were measured by an enzyme-coupled fluorometric assay (see, e.g., FIG. 4B). In this enzyme-coupled reaction, NAD is converted to NADH by alcohol dehydrogenase, and the fluorescence of NADH is detected in a fluorometer. To establish this assay system, optimal reaction conditions for Nmnat were initially examined by varying ATP and Mg^2+ concentrations and pH of the reaction buffer. The resultant reaction buffer for Nmnat contained 50 mM HEPES [pH 7.4], 0.02% BSA, 12 mM MgCl2, 2 mM ATP, 1.5% ethanol, and 30 μg/ml alcohol dehydrogenase to convert NAD to NADH. To determine the kinetic parameters for Nmnat, 30 ng of purified His-tagged Nmnat and varying concentrations of NMN were added to 1 ml of the reaction buffer. The reactions were run at 37° C. and quenched at six time points by the addition of 250 μl of 0.5 M EDTA. The production of NADH was measured by excitation at 340 nm and emission at 460 nm in a fluorometer. For kinetic characterization of Nampt, 500 ng of His-tagged Nampt and varying concentrations of nicotinamide were reacted at 37° C. in 100 μl of a buffer containing 50 mM Tris-HCl [pH 7.5], 0.02% BSA, 12 mM MgCl2, 2.5 mM ATP, 10 μg/ml His-tagged Nmnat, 0.4 mM phosphoribosyl pyrophosphate (PRPP), 1.5% ethanol, and 30 μg/ml alcohol dehydrogenase. NADH production was measured continuously in a fluorometer.
By using this enzyme-coupled fluorometric assay, kinetic parameters of purified recombinant mouse Nampt and Nmnat for nicotinamide and NMN, respectively, were determined (see, e.g., Table 1). The Lineweaver-Burk plots for these two enzymes are shown, for example, in FIGS. 11A and 11B. […] The Km and Vmax of mouse Nmnat are consistent with previously reported values for human NMNAT-1 (Emanuelli et al., J. Biol. Chem. (2001) 276, 406-412).

[4] = purified His-tagged recombinant mouse Nampt, substrate nicotinamide

B1: Nampt: Bacterially produced, His-tagged recombinant mouse nicotinamide phosphoribosyltransferase (protein)
chain: MNAAAEAEFNILLATDSYKVTHYKQYPPNTSKVYSYFECREKKTENSKVRKVKYEETVFYGLQYILNKYLKGKVVTKEKIQEAKEVYREHFQDDVFNERGWNYILEKYDGHLPIEVKAVPEGSVIPRGNVLFTVENTDPECYWLTNWIETILVQSWYPITVATNSREQKKILAKYLLETSGNLDGLEYKLHDFGYRGVSSQETAGIGASAHLVNFKGTDTVAGIALIKKYYGTKDPVPGYSVPAAEHSTITAWGKDHEKDAFEHIVTQFSSVPVSVVSDSYDIYNACEKIWGEDLRHLIVSRSTEAPLIIRPDSGNPLDTVLKVLDILGKKFPVTENSKGYKLLPPYLRVIQGDGVDINTLQEIVEGMKQKKWSIENVSFGSGGALLQKLTRDLLNCSFKCSYVVTNGLGVNVFKDPVADPNKRSKKGRLSLHRTPAGNFVTLEEGKGDLEEYGHDLLHTVFKNGKVTKSYSFDEVRKNAQLNIEQDVAPH
synthesis of nicotinamide mononucleotide (NMN) from nicotinamide and PRPP (mouse Nampt [1]): robust synthesis | synthesis of nicotinamide mononucleotide (NMN) from nicotinamide and PRPP (mouse Nampt [1]; listed as mouse Nampt): produced nicotinamide mononucleotide (NMN) | synthesis of nicotinic acid mononucleotide (NaMN) from nicotinic acid and PRPP (mouse Nampt [1]; substrate specificity): failed to catalyze; also recorded: did not synthesize | blood glucose levels (wild type males; listed as recombinant Nampt): no significant effect | blood glucose levels (wild type males; listed as recombinant Nampt protein): no decrease | kcat (mouse Nampt [2]): 0.035 s⁻¹ | catalytic efficiency of Nampt, fold less than that of Nmnat (mouse Nampt [3]; Nampt (nicotinamide) versus Nmnat (NMN)): ~46 fold | Vmax (mouse Nampt [3]; [4]): 0.021 µmol/min/mg | kcat (mouse Nampt [3]; [4]): 0.020 s⁻¹ | Km (mouse Nampt [3]; purified His-tagged recombinant mouse Nampt, substrate nicotinamide, 37° C.): 0.92 µM
